We go through 2 molecules from paper PMC9036128, “An anti-ANGPTL3/8 antibody decreases circulating triglycerides by binding to a LPL-inhibitory leucine zipper-like motif” (Journal of Lipid Research, 2022).

The target of one data set is T1, human ANGPTL3 (human, UniProt Q9Y5C1 17-460).
T1 construct: angiopoietin-like protein 3 (ANGPTL3), human; 460-amino acid protein, CCD 17-210, linker, FLD 241-460; also called free ANGPTL3; ANGPTL3 alone; source: generated as previously described (22, 44)
T1 sequence (looked up): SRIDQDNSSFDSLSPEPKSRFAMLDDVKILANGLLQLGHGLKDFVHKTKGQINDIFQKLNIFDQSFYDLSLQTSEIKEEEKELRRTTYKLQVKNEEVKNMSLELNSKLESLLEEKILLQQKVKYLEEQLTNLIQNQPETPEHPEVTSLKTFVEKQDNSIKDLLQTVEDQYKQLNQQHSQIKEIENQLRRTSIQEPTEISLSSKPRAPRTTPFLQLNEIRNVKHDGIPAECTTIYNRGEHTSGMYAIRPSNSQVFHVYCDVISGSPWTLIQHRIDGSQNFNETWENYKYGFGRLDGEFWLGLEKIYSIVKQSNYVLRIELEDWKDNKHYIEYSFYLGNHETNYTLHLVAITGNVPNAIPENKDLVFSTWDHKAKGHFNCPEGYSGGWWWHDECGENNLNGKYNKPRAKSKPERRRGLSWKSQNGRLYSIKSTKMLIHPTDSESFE
The experiment in a line: HDX-MS; purified ANGPTL3/8 complex (12 uM) against ANGPTL3 alone (15 uM) and ANGPTL8 alone (15 uM); pH 7.4, 10 mM sodium phosphate, 150 mM NaCl, 15 C; 10 s, 2 min, 10 min, 60 min; triplicate. As to conditions: both partners purified.

The target in data set [1] is T2, ANGPTL8 cotransfected with ANGPTL3 and the anti-ANGPTL3/8 antibody Fab in CHO cells (UniProt Q6UXH0 22-198).
T2 construct: angiopoietin-like protein 8 (ANGPTL8); Used only for negative stain TEM; source: CHO cells, cotransfected with ANGPTL3 and an anti-ANGPTL3/8 antibody Fab
T2 sequence (looked up): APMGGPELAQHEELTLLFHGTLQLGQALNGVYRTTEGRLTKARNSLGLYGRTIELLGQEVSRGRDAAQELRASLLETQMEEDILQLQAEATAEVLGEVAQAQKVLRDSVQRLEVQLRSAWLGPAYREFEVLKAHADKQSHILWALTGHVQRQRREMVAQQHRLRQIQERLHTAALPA
In words: negative stain transmission electron microscopy; ANGPTL3, ANGPTL8 and anti-ANGPTL3/8 antibody Fab cotransfected in CHO cells; sample diluted 100-fold into TBS, uranyl formate stain; 2D class averaging in three rounds.

Data set [2] concerns the molecule itself. The data set is described as above.

B1: human ANGPTL8 as it stands in the ANGPTL3/8 complex (HSA fusion partner removed) (natural protein, UniProt Q6UXH0 22-198, looked up)
chain: T2 sequence (looked up)
notes: angiopoietin-like protein 8 (ANGPTL8), human; 198-amino acid protein; same expression construct as HIS-HSA-ANGPTL8; also called ANGPTL8 complexed with ANGPTL3; source: part of the ANGPTL3/8 complex generated as previously described (22, 44); HSA fusion partner removed by proteolysis; not shown: His, N-terminal, cleaved; HSA, N-terminal, cleaved
Consider B1, for which the binding result with human ANGPTL3 is given as “binds”.

B2: ANGPTL3 cotransfected with ANGPTL8 and the anti-ANGPTL3/8 antibody Fab in CHO cells (natural protein, UniProt Q9Y5C1 17-460, looked up)
chain: T1 sequence (looked up)
notes: angiopoietin-like protein 3 (ANGPTL3); Used only for negative stain TEM; source: CHO cells, cotransfected with ANGPTL8 and an anti-ANGPTL3/8 antibody Fab
With B2, the stoichiometry N – broadly, the number of molecules, sites or subunits per partner or assembly – in data set [1] worked out at 3 ANGPTL3 per ANGPTL8; in data set [2], 3.
